IntAct's records for PubMed 31515488

B1: Ceramide transfer protein (Homo sapiens), Q9Y5P4 (parent)
chain: MSDNQSWNSSGSEEDPETESGPPVERCGVLSKWTNYIHGWQDRWVVLKNNALSYYKSEDETEYGCRGSICLSKAVITPHDFDECRFDISVNDSVWYLRAQDPDHRQQWIDAIEQHKTESGYGSESSLRRHGSMVSLVSGASGYSATSTSSFKKGHSLREKLAEMETFRDILCRQVDTLQKYFDACADAVSKDELQRDKVVEDDEDDFPTTRSDGDFLHSTNGNKEKLFPHVTPKGINGIDFKGEAITFKATTAGILATLSHCIELMVKREDSWQKRLDKETEKKRRTEEAYKNAMTELKKKSHFGGPDYEEGPNSLINEEEFFDAVEAALDRQDKIEEQSQSEKVRLHWPTSLPSGDAFSSVGTHRFVQKPYSRSSSMSSIDLVSASDDVHRFSSQVEEMVQNHMTYSLQDVGGDANWQLVVEEGEMKVYRREVEENGIVLDPLKATHAVKGVTGHEVCNYFWNVDVRNDWETTIENFHVVETLADNAIIIYQTHKRVWPASQRDVLYLSVIRKIPALTENDPETWIVCNFSVDHDSAPLNNRCVRAKINVAMICQTLVSPPEGNQEISRDNILCKITYVANVNPGGWAPASVLRAVAKREYPKFLKRFTSYVQEKTAGKPILF
B2: Mothers against decapentaplegic homolog 4 (Homo sapiens), Q13485 (parent)
chain: MDNMSITNTPTSNDACLSIVHSLMCHRQGGESETFAKRAIESLVKKLKEKKDELDSLITAITTNGAHPSKCVTIQRTLDGRLQVAGRKGFPHVIYARLWRWPDLHKNELKHVKYCQYAFDLKCDSVCVNPYHYERVVSPGIDLSGLTLQSNAPSSMMVKDEYVHDFEGQPSLSTEGHSIQTIQHPPSNRASTETYSTPALLAPSESNATSTANFPNIPVASTSQPASILGGSHSEGLLQIASGPQPGQQQNGFTGQPATYHHNSTTTWTGSRTAPYTPNLPHHQNGHLQHHPPMPPHPGHYWPVHNELAFQPPISNHPAPEYWCSIAYFEMDVQVGETFKVPSSCPIVTVDGYVDPSGGDRFCLGQLSNVHRTEAIERARLHIGKGVQLECKGEGDVWVRCLSDHAVFVQSYYLDREAGRAPGDAVHKIYPSAYIKVFDLRQCHRQMQQQAATAQAAAAAQAAAVAGNIPGPGSVGGIAPAISLSAAAGIGVDDLRRLCILRMSFVKGWGPDYPRQSIKETPCWIEIHLHRALQLLDEVLHTMPIADPQPLD
partner: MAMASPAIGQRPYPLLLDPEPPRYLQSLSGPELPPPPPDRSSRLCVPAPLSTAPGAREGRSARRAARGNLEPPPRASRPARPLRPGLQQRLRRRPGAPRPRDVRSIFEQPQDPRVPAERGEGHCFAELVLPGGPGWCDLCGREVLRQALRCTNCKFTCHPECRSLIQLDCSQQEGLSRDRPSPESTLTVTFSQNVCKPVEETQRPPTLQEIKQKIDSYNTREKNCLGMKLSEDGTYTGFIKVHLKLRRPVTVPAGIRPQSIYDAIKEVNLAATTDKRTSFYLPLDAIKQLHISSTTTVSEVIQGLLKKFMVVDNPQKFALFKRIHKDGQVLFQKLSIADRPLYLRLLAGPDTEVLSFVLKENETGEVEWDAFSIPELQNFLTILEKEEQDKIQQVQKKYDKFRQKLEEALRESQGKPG
B3: Vesicle transport through interaction with t-SNAREs homolog 1B (Homo sapiens), Q9UEU0 (parent)
chain: MASSAASSEHFEKLHEIFRGLHEDLQGVPERLLGTAGTEEKKKLIRDFDEKQQEANETLAEMEEELRYAPLSFRNPMMSKLRNYRKDLAKLHREVRSTPLTATPGGRGDMKYGIYAVENEHMNRLQSQRAMLLQGTESLNRATQSIERSHRIATETDQIGSEIIEELGEQRDQLERTKSRLVNTSENLSKSRKILRSMSRKVTTNKLLLSIIILLELAILGGLVYYKFFRSH
partner: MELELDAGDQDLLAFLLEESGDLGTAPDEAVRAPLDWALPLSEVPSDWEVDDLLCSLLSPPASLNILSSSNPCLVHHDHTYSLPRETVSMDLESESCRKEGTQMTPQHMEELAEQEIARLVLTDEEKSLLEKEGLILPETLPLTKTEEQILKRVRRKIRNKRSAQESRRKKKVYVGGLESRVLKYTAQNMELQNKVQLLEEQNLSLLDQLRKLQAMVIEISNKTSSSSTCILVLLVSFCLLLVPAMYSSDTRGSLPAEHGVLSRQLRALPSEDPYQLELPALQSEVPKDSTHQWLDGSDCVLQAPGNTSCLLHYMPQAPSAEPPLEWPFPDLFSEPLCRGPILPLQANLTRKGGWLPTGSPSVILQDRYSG
B4: Ubiquitin thioesterase OTUB2 (Homo sapiens), Q96DC9 (parent)
chain: MSETSFNLISEKCDILSILRDHPENRIYRRKIEELSKRFTAIRKTKGDGNCFYRALGYSYLESLLGKSREIFKFKERVLQTPNDLLAAGFEEHKFRNFFNAFYSVVELVEKDGSVSSLLKVFNDQSASDHIVQFLRLLTSAFIRNRADFFRHFIDEEMDIKDFCTHEVEPMATECDHIQITALSQALSIALQVEYVDEMDTALNHHVFPEAATPSVYLLYKTSHYNILYAADKH
partner: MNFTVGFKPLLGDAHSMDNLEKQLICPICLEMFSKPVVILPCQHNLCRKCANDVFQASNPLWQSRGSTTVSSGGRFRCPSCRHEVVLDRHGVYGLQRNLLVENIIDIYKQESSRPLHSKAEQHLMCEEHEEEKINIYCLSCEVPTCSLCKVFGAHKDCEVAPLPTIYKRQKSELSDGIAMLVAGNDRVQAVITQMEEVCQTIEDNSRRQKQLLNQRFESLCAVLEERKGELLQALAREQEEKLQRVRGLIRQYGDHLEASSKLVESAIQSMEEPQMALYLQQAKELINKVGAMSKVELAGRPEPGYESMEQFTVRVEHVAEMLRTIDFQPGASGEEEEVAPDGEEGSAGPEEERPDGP
B5: Transmembrane protein 79 (Homo sapiens), Q9BSE2 (parent)
chain: MTEQETLALLEVKRSDSPEKSSPQALVPNGRQPEGEGGAESPGAESLRVGSSAGSPTAIEGAEDGLDSTVSEAATLPWGTGPQPSAPFPDPPGWRDIEPEPPESEPLTKLEELPEDDANLLPEKAARAFVPIDLQCIERQPQEDLIVRCEAGEGECRTFMPPRVTHPDPTERKWAEAVVRPPGCSCGGCGSCGDREWLRAVASVGAALILFPCLLYGAYAFLPFDVPRLPTMSSRLIYTLRCGVFATFPIVLGILVYGLSLLCFSALRPFGEPRREVEIHRRYVAQSVQLFILYFFNLAVLSTYLPQDTLKLLPLLTGLFAVSRLIYWLTFAVGRSFRGFGYGLTFLPLLSMLMWNLYYMFVVEPERMLTATESRLDYPDHARSASDYRPRPWG

Variants of: B1
Settings: with rtn4_human RTN4, Q9NQC3
rtn4_human RTN4, Q9NQC3, sequence (Q9NQC3 whole entry): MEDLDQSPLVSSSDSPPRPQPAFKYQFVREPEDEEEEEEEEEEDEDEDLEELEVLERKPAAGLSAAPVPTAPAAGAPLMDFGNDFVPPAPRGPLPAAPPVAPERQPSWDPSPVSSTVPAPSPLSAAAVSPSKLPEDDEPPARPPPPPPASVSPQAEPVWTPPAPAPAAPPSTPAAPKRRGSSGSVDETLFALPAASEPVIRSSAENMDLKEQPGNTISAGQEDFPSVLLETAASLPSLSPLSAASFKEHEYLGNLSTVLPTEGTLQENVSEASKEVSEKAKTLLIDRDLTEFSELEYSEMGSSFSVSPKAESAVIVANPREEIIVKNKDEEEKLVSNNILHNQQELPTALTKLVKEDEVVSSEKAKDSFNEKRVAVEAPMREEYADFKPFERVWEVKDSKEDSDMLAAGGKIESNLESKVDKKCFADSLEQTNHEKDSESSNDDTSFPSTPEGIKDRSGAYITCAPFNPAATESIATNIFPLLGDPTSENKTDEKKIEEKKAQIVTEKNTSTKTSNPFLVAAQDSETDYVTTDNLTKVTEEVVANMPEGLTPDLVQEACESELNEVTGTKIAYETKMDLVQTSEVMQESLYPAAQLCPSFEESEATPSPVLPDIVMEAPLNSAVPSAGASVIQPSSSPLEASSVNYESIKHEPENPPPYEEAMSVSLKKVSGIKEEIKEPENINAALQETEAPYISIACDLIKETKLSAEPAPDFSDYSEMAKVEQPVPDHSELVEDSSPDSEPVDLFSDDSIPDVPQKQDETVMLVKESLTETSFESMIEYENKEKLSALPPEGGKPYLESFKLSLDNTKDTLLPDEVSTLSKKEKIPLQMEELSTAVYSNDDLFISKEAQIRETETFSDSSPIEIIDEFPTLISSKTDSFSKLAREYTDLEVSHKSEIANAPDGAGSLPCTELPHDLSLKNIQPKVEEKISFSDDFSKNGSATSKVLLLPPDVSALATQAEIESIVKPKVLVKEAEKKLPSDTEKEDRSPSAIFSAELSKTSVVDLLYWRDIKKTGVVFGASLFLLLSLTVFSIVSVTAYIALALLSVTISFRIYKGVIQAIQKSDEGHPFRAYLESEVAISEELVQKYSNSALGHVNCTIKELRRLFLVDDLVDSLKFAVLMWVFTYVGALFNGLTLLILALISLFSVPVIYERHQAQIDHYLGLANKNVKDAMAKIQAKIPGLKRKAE

Variant	effect of a mutation on the interaction
R128H	with no effect

Variants of: B1
Settings: with rtn3_human RTN3, O95197
rtn3_human RTN3, O95197, sequence (O95197 whole entry): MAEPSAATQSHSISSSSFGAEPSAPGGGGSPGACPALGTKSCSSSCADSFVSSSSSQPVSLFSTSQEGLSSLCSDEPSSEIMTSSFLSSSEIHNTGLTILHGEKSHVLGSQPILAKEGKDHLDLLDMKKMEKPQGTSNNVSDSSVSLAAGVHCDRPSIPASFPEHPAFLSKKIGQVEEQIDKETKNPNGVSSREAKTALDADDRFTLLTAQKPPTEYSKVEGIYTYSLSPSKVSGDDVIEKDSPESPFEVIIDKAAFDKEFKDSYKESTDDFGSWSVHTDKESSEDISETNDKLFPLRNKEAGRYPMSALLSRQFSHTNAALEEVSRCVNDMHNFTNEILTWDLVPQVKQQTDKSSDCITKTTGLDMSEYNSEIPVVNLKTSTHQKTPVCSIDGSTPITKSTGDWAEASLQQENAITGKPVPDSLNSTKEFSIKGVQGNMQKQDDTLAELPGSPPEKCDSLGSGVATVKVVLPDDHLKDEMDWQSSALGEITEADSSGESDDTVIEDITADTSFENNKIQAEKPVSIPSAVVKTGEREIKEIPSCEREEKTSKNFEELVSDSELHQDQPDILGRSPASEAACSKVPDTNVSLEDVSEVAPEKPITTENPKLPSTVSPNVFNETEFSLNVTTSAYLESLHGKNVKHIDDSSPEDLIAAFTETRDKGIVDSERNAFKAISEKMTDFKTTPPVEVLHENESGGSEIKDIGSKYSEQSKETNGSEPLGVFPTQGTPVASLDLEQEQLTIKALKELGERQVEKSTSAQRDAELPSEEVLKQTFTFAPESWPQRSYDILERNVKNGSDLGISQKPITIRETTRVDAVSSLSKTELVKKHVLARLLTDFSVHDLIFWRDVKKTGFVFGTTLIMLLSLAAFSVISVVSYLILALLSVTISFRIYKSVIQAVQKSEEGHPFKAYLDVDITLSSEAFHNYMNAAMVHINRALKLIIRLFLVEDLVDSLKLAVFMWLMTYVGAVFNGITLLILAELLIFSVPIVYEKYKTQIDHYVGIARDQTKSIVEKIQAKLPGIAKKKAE

Variant	effect of a mutation on the interaction
R128H	with no effect

Variants of: B1
Settings: with ar6p1_human ARL6IP1, Q15041
ar6p1_human ARL6IP1, Q15041, sequence (Q15041 whole entry): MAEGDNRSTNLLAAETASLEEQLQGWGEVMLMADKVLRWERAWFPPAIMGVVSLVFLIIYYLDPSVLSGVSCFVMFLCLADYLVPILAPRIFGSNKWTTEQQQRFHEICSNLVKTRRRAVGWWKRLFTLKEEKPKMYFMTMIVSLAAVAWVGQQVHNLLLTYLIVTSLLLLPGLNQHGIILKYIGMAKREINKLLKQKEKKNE

Variant	effect of a mutation on the interaction
R128H	with no effect

Variants of: B2
Settings: with rasf5_human RASSF5, Q8WWW0

Variant	effect of a mutation on the interaction
L533R	with no effect
G352R	with no effect
R361C	with no effect
Y353S	with no effect

Variants of: B3
Settings: with creb3_human CREB3, O43889

Variant	effect of a mutation on the interaction
R124Q	with no effect
R176H	with no effect

Variants of: B4
Settings: with tri54_human TRIM54, Q9BYV2

Variant	effect of a mutation on the interaction
V78I	with no effect
R146P	disrupting interaction strength

Variants of: B5
Settings: with tnmd_human TNMD

Variant	effect of a mutation on the interaction
V322I	with no effect

Variants of: B5
Settings: with pspc_human SFTPC

Variant	effect of a mutation on the interaction
D144G	with no effect
V147M	with no effect
S104T	with no effect

Variants of: B5
Settings: with sarco_human SLN

Variant	effect of a mutation on the interaction
D144G	with no effect
V147M	with no effect
S104T	with no effect

Variants of: B5
Settings: with sc22a_human SEC22A

Variant	effect of a mutation on the interaction
D144G	with no effect
V147M	with no effect
S104T	with no effect

Variants of: B5
Settings: with tx264_human TEX264, Q9Y6I9
tx264_human TEX264, Q9Y6I9, sequence (Q9Y6I9 whole entry): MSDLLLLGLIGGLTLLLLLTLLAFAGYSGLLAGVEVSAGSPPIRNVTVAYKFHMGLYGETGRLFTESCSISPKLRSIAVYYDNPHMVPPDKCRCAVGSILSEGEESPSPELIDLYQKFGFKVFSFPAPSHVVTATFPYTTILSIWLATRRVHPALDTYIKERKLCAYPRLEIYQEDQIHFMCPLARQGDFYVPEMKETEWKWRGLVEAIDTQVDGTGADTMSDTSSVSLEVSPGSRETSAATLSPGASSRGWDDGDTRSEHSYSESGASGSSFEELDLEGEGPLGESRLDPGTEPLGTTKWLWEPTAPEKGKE

Variant	effect of a mutation on the interaction
D144G	with no effect
V147M	with no effect
S104T	with no effect
